The labels stand for the following.
B1: 6420-48.1 (antibody, V domains shown)
VH: EVQLVESGGGLVQPGGSLRLSCAASGFTFNTYEMNWVRQAPGKGLEWVSYISGTGNNIYYADSVKGRFTISRDNAKNSLYLQMDNLRAEDTAVYYCARGGQLWFGERLYFHFWGQGTLVAVSS
VL: DIQMSQSPSSLSASVGDRVTITCRASQSIGNNLNWYQQKPGKAPNLLIYAASNLQSGVPSRFSGSGSGTDFSLTISSLQPEDFTIYYCQQSFSTPITFGQGTRLEIK
B2: 6420-48.2 (antibody, V domains shown)
VH: EVQLVESGGGLVRPGGSLRLSCAASGFTFNTYEMNWVRQAPGKGLEWLSYISSTGNNIFYADSVKGRFTISRDNAKNSLYLQMNNVRTDDTALYYCARGGQLWFGERLNFQHWGQGTQVTVSS
VL: DIQMTQSPSSLSASVGDRVTITCRASQTISNNLNWYQQKPGKAPKFLIYSVSVLQSGVPSRFSGSGSGTDFTLTITSLQPEDFATYYCQQSHSTPLTFGQGTRLEIK
B3: 6420-35 (antibody, V domains shown)
VH: EVQLVESGGDLVQPGGSLRLSCLGSGFDFRTYGMNWVRQAPGKGLEWVSYISSTSSAIYYTDSIEGRFTISRDNGKNLLSLQMSSLRDEDTAVYYCARGGSLWFGREFHAMDVWGRGTTVTVSS
VL: QAVVTQEPSLTVSPGGTVTLTCGSSTGAVTSDHYPYWFQQKPGQAPRTLIYDTINRHSWAPARFSASLLGGKAALTLSGAQPEDEAEYYCLLSYSGARRVFGGGTKLTVL
B4: 4591-2 (antibody, V domains shown)
VH: QVQLQQWGAGLLKPSETLSLTCDVSGGSFSDFYWSWVRQSPGKGLEWIGDINHSGSSNYIPSLDGRVTISVDTSRSQFSLNLTSVTAADTAIYFCARKVWPFNGMDVWSQGTTVTVSS
VL: ATQLTQSPSFLSASVGDRVTITCRASQGIRNFLAWYQQKPGKAPNLLIYAASTLQSGVPSRFAGSGSGTEFTLTINNVQPEDFATYYCQQLTNYATFGQGTKLEIQ
B5: 6420-233.1 (antibody, V domains shown)
VH: EVQLVESGGALVQPGGSLRLSCAASGFNFISYGMNWVRQAPGKGLEWISYISSASNTIYYADSVKGRFTISRDNAKNSLYLQMTSLRDGDSALYYCARDIVTIFFRGRSQHAFSVWGQGTAVAVSS
VL: SYVLTQPPSVSVAPGQTARITCGGNNIGSKNVHWYQQKPGQAPVLVVYDNSDRPSGVPERFSGSNSGNTATLTITRVEAGDEADYYCQVWDISSDHQVFGGGTKLTAL
B6: 6420-233.2 (antibody, V domains shown)
VH: EVQLVESGGGLVQPGGSLRLSCAASGFDFRTYSMNWVRQAPGKGLEWLSYISSTSATIYSADSVKGRFTISRDNAKNSVYLQMNSLRVDDTAVYFCARERITVFFRGRSQHASNVWGQGTMVTVSS
VL: SYVLTQAPSVSVAPGQTARITCGGDNIGNKNAHWYQQKPGQAPVLVVYDNSDRPSGIPERFSGSNSGNTATLTISRVEAGDEADYFCQVWDSSSDHQVFGGGTKLTVL
B7: 4513-12 (antibody, V domains shown)
VH: QLQLQESGPGLVKPSETLALTCSVSGGSIFSSNYYWAWIRQPPGKGLEWMGSVYFSGTTFYNPSLKSRVIVSVDTAKNQFSLKLNSVSAADTAIYYCARDVRMRSGRPRQYCMDVWGKGTTVTVSS
VL: EVVLTQSPGTLSLSPGERATLSCRASQSVNSIYLAWYQQKPGQAPRLLIYGASNRAAGIPDRFSGSGSGTDFTLTIDRLEPEDFAVYYCQQYDTSPAVTFGPGTKVEIK
B8: 4487-4 (antibody, V domains shown)
V domain 1: QVQLVQSGTELTKPGMSVKISCRASGTTFTRPYVHWVRQAPGQGLEWMGMINPTGVNVFSAQKFQGRVTMTRQTSTHTSFLELVSLTGDDTAVYYCATSSGVVSLRSAFDIWGQGTILIVSS
V domain 2: QSALSQPASVSGSLGQSITISCSGVGSDAVTYTVVSWYQQHPTKAPKIIISDGDKRPSGVSSRFSGSKSGNTAFLRISGLQTDDEALYYCCSYVGSNTWVFGGGTTVTVL
B9: 4513-14 (antibody, V domains shown)
VH: QVQLVQSGREVKKFGSSVRVSCKASGGSFDTYAISWVRQAPGQGLEWMGQITPMFGTSHMSQRFQGRLTIDTDDSTGTVFMDMRGLRTEDSATYYCAKDWSFDDDGGAYVPSAMDVWGQGTTVIVSS
VL: EIVLTQSPGTLSVSPGERATLSCKASQSISSSSLAWYRQTPGQTPTLLIYGTSTRATGIPDRFSGRGSGTDFTLTITNVKPEDFAVYYCQQYGSSPFTFGPGTRLDFR
B10: 4513-11 (antibody, V domains shown)
VH: QVQLAQSGAEVKKPGSSVKVSCHVSGGTFSTYAINWVRQAPGHGPEWMGRITPISGATDYAQKFQARITISADESTSAAYLEVRTLRSDDTAVYYCARVGQPKFFERSSDGEHFQHWGQGTLVTVSS
VL: DIQMTQSPSTLSASVGDRTTITCRASQNIDKWLAWYQQKPGKAPTVLIFKASTLESGVPSRFSGSSSGTEFTLTIDNLQPEDSATYFCHQYSRYPWTFGQGTKVELK
B11: 4487-5 (antibody, V domains shown)
VH: QMQLVQSGPEVRKPGSSVKVSCKASGGTFDNSAITWVRQAPGQGLEWMGGIIPFVGAAAYAQRFLGRATITADASTTSSYLELRGLTSDDTGVYFCARDGLRLNFYYYGMDVWGQGTPIIVSS
VL: QIVLTQSPGTLSLSPGDTATLSCRASQRVTHTHLAWYQQKPGQPPRLLIYATSQRATGIPDRFRGSGSGRDFTLTIASLEPEDFAVYYCQQNGESPRMFGQGTKLDVK

A value given as a limit tells only on which side of the number the result lay.

The first assay has as its target BG505.SOSIP CD4bs variants (BG505.SOSIP.D368R, BG505.SOSIP.N279K, BG505.SOSIP.D368R/N279K (DKO)). As to the kind of experiment: ELISA AUC normalized to BG505.SOSIP.backbone. (In general: ELISA stands for enzyme-linked immunosorbent assay.)
Molecule B1 registered a fold decrease in binding against BG505.SOSIP Env greater than 2 fold. Still for that read-out and setting: as for B2, the figure is greater than 2 fold. Regarding B3, the fold decrease in binding against BG505.SOSIP Env was greater than 2 fold. Still for that read-out and setting: to B4 belongs greater than 2 fold; to B5, greater than 2 fold; to B6, greater than 2 fold.

The next assay addresses trimeric Env protein (HIV-1 Env gp140 trimer antigens of the panel: ZM197, CNE55, CZA97). Nature of the assay: ELISA (AUC) on HIV-1 Env gp140 trimer and gp120 monomer panel.
Regarding B7, the binding to trimeric Env protein relative to monomeric Env protein is greater than 3 times.

As to B8, the binding to trimeric Env protein relative to monomeric Env protein was greater than 3 times.

Molecule B9 returned a binding to trimeric Env protein relative to monomeric Env protein greater than 3 times. Same read-out and setting: to B10 belongs greater than 3 times; to B11, greater than 3 times.
